Assay [1] concerns the target mIL-2:S4B6 immunocomplex (mouse | not stated) (UniProt P04351). The experiment in a line: SPR. (SPR reads the build-up and loss of mass on a sensor chip optically.)
In assay [2] the target is IL-2Rβ/IL-2Rγ (Homo sapiens) (UniProt P14784). The note with it: cited from earlier work.
The target of assay [3] is mouse interleukin-2 (mouse) (UniProt P04351).
Assay [4] has as its target mouse interleukin-2 displayed on the surface of yeast (mouse, UniProt P04351). The experiment in a line: flow cytometry on cells. For orientation: Flow cytometry measures light scatter and fluorescence of single cells or particles in a stream.

Some results are limits rather than exact numbers.

For “mouse interleukin-2 receptor-β (from UniProt P16297 27-240)”, the fold enhancement of binding over free mIL-2 in assay [1] is 6 fold. Turning to IL-2 (from UniProt P60568), in assay [2], the Kd (in general, the constant that tells how readily two partners part at equilibrium) was 1 nM.

B1: S4B6 antibody (antibody, V domains shown)
VH: EVQLQESGAELVRPGTSVKLSCKVSGDTITAYYLHFVRQRPGQGLEWIGRIDPEDDSTKYAENFKNKATFTADASSNTAYLRLSSLTSEDTATYFCTTVTFYYSRELRWFAYWGQGTLVTVSS
VL: DIQVTQSPASLSASLEEIVTITCQASQDIGNYLSWYQQKLGKSPQLLIHSATSLADGVPSRFSGSRSGTQYSLKINRLQVEDTGIYYCLQHYSTPYTFGAGTKLELK
Take B1: the fold higher apparent affinity than the monovalent form in assay [3] is more than 25 fold. Further, in assay [4], the binding result is “binds”.

B2: JES6-1 antibody (antibody, V domains shown)
VH: EIQLQQSGPELRRPGSSVKLSCKASGYNITDYLIHWVRHRPEHGLEWIGWIDPEDGETRYAQKFQSKATLTADTSSNAAYMQLSSLTPEDTATYFCARSLDSTYIYPFAYWGQGTLVTVSS
VL: DIVMTQSPFSLAVSEGEMVTINCKSSQSLLSSGNQKNYLAWYQQKPGQSPKLLIYYASTGQSGVPDRFIGSGSGTDFTLTISDVQAEDLADYYCLQHYISPPTFGAGTKLELK
On to B2, for which, in assay [4], the binding result is recorded as “binds”.

These data come from article PMC4439582 (Immunity, 2015).
